Assay results taken from patent US20240190983A1 (JULIUS MAXIMILIANS UNIVERSIT T W RZBURG, published 2024).

T1: Murine TNFR2 (mouse, UniProt P25119 23-474)
T1 construct: Expressed on transiently transfected HEK293 cells; also called mouse TNFR2; TNFR2(mu)
T1 sequence: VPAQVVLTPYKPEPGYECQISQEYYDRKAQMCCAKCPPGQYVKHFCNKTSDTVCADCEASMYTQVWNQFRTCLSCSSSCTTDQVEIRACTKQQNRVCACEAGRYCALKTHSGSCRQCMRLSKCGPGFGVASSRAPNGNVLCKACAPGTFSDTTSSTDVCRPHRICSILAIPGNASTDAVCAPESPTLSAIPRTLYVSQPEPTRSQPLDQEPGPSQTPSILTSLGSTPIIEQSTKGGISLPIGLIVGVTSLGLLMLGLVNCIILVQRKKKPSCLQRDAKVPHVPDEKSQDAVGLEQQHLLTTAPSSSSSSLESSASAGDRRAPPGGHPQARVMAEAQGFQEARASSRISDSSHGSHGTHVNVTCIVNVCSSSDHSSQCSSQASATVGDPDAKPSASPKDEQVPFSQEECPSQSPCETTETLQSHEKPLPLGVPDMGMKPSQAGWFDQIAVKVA

T2: Human TNFR2 (human, UniProt P20333 23-461)
T2 construct: On cells: HeLa-TNFR2, HT1080-Bcl2-TNFR2, transiently transfected HEK293; endogenous on Kym-1 cells; also called huTNFR2; TNFRSF1B
T2 sequence: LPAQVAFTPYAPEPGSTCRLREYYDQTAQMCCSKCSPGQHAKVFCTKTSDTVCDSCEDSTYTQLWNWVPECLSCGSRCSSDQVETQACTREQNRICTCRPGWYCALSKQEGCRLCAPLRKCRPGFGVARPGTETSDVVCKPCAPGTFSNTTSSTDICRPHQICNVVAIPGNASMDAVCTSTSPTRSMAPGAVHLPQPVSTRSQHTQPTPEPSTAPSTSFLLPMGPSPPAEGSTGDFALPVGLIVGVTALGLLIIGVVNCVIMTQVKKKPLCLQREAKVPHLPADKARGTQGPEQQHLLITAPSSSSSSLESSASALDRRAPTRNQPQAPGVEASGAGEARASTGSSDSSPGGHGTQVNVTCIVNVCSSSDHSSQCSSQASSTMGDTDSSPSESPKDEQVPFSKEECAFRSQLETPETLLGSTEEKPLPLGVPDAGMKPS

T3: Cynomolgus TNFR2 (Macaca fascicularis (cynomolgus monkey), UniProt P20333 26-461 (human entry))
T3 construct: Expressed on transiently transfected HEK293 cells; also called TNFR2-cyno; monkey TNFR2
T3 chain: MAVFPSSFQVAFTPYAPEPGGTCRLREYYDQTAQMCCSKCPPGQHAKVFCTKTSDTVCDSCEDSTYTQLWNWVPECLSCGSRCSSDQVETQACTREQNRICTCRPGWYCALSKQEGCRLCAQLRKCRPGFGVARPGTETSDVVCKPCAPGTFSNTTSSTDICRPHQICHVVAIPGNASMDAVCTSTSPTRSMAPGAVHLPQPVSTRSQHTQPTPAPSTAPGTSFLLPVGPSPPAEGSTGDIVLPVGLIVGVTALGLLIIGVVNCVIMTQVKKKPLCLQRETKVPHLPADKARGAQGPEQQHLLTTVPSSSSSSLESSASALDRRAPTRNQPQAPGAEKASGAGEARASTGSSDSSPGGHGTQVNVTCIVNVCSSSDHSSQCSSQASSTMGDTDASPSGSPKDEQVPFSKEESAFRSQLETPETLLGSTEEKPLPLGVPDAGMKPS


What was measured:
[1] = molecular target: T1, Murine TNFR2; experiment: equilibrium binding of VHH-Fc-GpL to cells expressing mouse TNFR2, 37 C
Procedure: (§1) Specific binding (open circles) was obtained by subtraction of the non-specific binding values (Hek293 cells—crosses) from the binding values for transfectants expressing human TNFR2 (total binding—closed circles). Specific binding was analyzed with the “nonlinear regression to a one-site specific binding curve” function of the GraphPad Prism5 software.
(§2) The equivalent experiment was also performed using TNFR2 from different species, namely from Mus musculus (mouse), Macaca fascicularis (cynomolgus monkey), and Chlorocebus sabaeus (African green monkey) to study the ability of the VHH regions to bind to TNFR2 from different species. The ability to cross react to TNFR2 from different species can be helpful in allowing the antibodies to be studied in various models before assessment in human patients.

[2] = molecular target: T2, Human TNFR2; experiment: equilibrium binding of VHH-Fc-GpL to cells expressing human TNFR2, 37 °C; HEK293 cells as unspecific binding; one-site fit of specific binding
[3] = molecular target: T4, African green monkey TNFR2 (Chlorocebus sabaeus (African green …)); experiment: equilibrium binding of VHH-Fc-GpL to cells expressing African green monkey TNFR2, 37 C; column head Affinity (ng/ml)
T4 construct: whole, on cells
Procedure: as §1, §2

[4] = molecular target: T3, Cynomolgus TNFR2; experiment: equilibrium binding of VHH-Fc-GpL to cells expressing cynomolgus TNFR2, 37 C; column head Affinity (ng/ml)
Procedure: as §1, §2

[5] = molecular target: T1, Murine TNFR2; experiment: equilibrium binding of VHH-Fc-GpL to cells expressing mouse TNFR2, 37 C; column head Affinity (ng/ml)
Procedure: as §1, §2

[6] = molecular target: T2, Human TNFR2; experiment: binding of 3xVHH-Fc-GpL to HEK293 cells transiently transfected with TNFR2; empty-vector cells as unspecific binding
[7] = molecular target: T2, Human TNFR2; experiment: equilibrium binding of 3xVHH-Fc-GpL to HEK293 cells expressing human TNFR2 (panel head Hek-293-TNFR2-human), 37 °C
[8] = molecular target: T1, Murine TNFR2; experiment: equilibrium binding of 3xVHH-Fc-GpL to HEK293 cells expressing murine TNFR2 (panel head Hek-293-TNFR2-murine), 37 °C
[9] = molecular target: T3, Cynomolgus TNFR2; experiment: equilibrium binding of VHH-Fc-GpL to cells expressing cynomolgus TNFR2, 37 C
Procedure: as §1, §2

[10] = molecular target: T2, Human TNFR2; experiment: specific binding of the GpL fusion protein to HeLa-TNFR2 cells after 8 h, HeLa values subtracted, luciferase activity normalised to GpL per binding site
Procedure: HeLa-TNFR2 cells were pretreated with 3-10 μg/ml of the indicated anti-TNFR2 antibodies or remained untreated. […] Supernatants of HeLa-TNFR2 cells were then analyzed for TNFR2-induced IL8 production (B) and repeatedly washed cells (HeLa, and HeLa-TNFR2) were analyzed for cell-associated GpL activity. Specific binding to TNFR2, shown in (A) was calculated by subtraction of the unspecific binding values obtained from the HeLa cells from the total binding values derived of the HeLa-TNFR2 cells. […] The latter was transformed into “occupied receptors per cells” by help of the number of cells in the assay and the measured specific activity (RLU/molecule) of the GpL constructs.
Supernatants of HeLa-TNFR2 were then analyzed for TNFR2-induced IL8 production with the results shown in (B). Repeatedly washed cells (HeLa, and HeLa-TNFR2) were analyzed for cell-associated GpL activity. Specific binding to TNFR2, was calculated by subtraction of the unspecific binding values obtained from the HeLa cells from the total binding values derived of the HeLa-TNFR2 cells with the results obtained shown in (A).

Binder	binding result [1]	Kd [2]	Kd [3]	Kd [6]	Kd [7]	also measured
VHH:C36-Fc-GpL (Fc fusion, also called VHH-Fc-GpL format protein of C36; not shown: The Fc domain, the C-terminal GpL reporter and the linkers or tags of the VHH-Fc-GpL construct; No entry gives the joined chain or says which Fc variant was used) VHH: HVQLVESGGGSVQAGGSLRLSCAASGFTFSSYYMSWVRQAPGKGLEWVSAIYSDDSDNYSDSVKGRFTISKDNAKNTLYLQMNSLKPEDTAMYYCAAIRIGTDQYKFWGQGTQVTVSS	no binding	3.2 µg/mL	0.08 µg/mL			
VHH:C18-Fc-GpL (Fc fusion, also called VHH-Fc-GpL variant of C18; not shown: The Fc domain, the C-terminal GpL reporter and the linkers or tags of the VHH-Fc-GpL construct; No entry gives the joined chain or says which Fc variant was used) VHH: DVQLVESGGGSVQTGGSLTLSCAISGSTSERYCMGWFRQAPGREREGVAATSLTGRGAQFYADSVKGRFTISLDDAKNTLYLQMDSLRPDDTAVYYCAADVGFLCGYDSDNDPFYDWGQGTQVTVSS		0.23 µg/mL	0.06 µg/mL			Kd [4]: 0.05 µg/mL
VHH:C188-Fc-GpL (Fc fusion, Gaussia princeps, also called VHH-Fc-GpL format protein of C188; not shown: Fc domain; Gaussia princeps luciferase (GpL) reporter domain at the C-terminus of the Fc) DVQLVESGGGSVQTGGSLTLSCAISGSTSERYCLGWFRQAPGREREGVAATSLTGRGAQFYADSVKGRFTISLDDAKNTLYLQMDSLRPDDTAVYYCAEDVGFLCGYDSDNDPFYDWGQGTQVTVSS		0.57 µg/mL	0.15 µg/mL			Kd [4]: 0.45 µg/mL; Kd [5]: 0.95 µg/mL
3×VHH:C18-Fc-GpL (Fc fusion, also called 3×VHH-Fc-GpL variant of C18; hexavalent format of C18; not shown: the listing has no entry for the 3xVHH-Fc-GpL format) VHH: DVQLVESGGGSVQTGGSLTLSCAISGSTSERYCMGWFRQAPGREREGVAATSLTGRGAQFYADSVKGRFTISLDDAKNTLYLQMDSLRPDDTAVYYCAADVGFLCGYDSDNDPFYDWGQGTQVTVSS				0.006 µg/mL	0.001 µg/mL	Kd [8]: 0.18 µg/mL
3xVHH:C188-Fc-GpL (Fc fusion, not shown: a dimerising Fc or GST; small tags and cut ends, also called hexavalent 3×VHH-Fc-GpL construct of C188) VHH: DVQLVESGGGSVQTGGSLTLSCAISGSTSERYCLGWFRQAPGREREGVAATSLTGRGAQFYADSVKGRFTISLDDAKNTLYLQMDSLRPDDTAVYYCAEDVGFLCGYDSDNDPFYDWGQGTQVTVSS				0.005 µg/mL	0.003 µg/mL	Kd [8]: 0.07 µg/mL
VHH:C12-Fc-GpL (Fc fusion, also called VHH-Fc-GpL format protein of C12; not shown: The Fc domain, the C-terminal GpL reporter and the linkers or tags of the VHH-Fc-GpL construct; No entry gives the joined chain or says which Fc variant was used) VHH: DVQLVESGGGLVQPGGSLRLSCGGSGFTFSSYGMSWVRQAPGKGLEWVSGIYDDGSVTDYADSVKGRFTISRDDAKNTVYLQMNSLKSEDTALYYCATGEDGELNYWGQGTQVTVSS	no binding	0.8 µg/mL	0.08 µg/mL			binding result [9]: no binding
VHH:C118-Fc-GpL (Fc fusion, also called VHH-Fc-GpL format protein of C118; not shown: The Fc domain, the C-terminal GpL reporter and the linkers or tags of the VHH-Fc-GpL construct; No entry gives the joined chain or says which Fc variant was used) VHH: QVQLVESGGGSVQAGGSLRLSCAASGHTYRSNCMGWFRQAPGKEREGVAAMYTGTDWKYYADSVKGRFTISQDKAKNTLYLVMNNLKPDDTGVYYCAADFGFICGYDSDDDPYDAWGQGTQVTVSS	no binding	0.13 µg/mL	0.1 µg/mL			
C4-IgG1(N297A)-LC:GpL-HC:scFvC4 (antibody, copies: 2 + 2) light: EVKLVPRQLDIVMTQSHKFMSTSVGDRVSITCKASQDVDTAVAWYQQKPGQSPKLLIYWASTRHTGVPDRFTGSGSGTDYTLTISSVQAEDLARYYCQQYYSVPPTFGGGTKLGSEIKRTVAAPSVFIFPPSDEQLKSGTASVVCLLNNFYPREAKVQWKVDNALQSGNSQESVTEQDSKDSTYSLSSTLTLSKADYEKHKVYACEVTHQGLSSPVTKSFNRGECLEKPTENNEDFNIVAVASNFATTDLDADRGKLPGKKLPLEVLKEMEANARKAGCTRGCLICLSHIKCTPKMKKFIPGRCHTYEGDKESAQGGIGEAIVDIPEIPGFKDLEPMEQFIAQVDLCVDCTTGCLKGLANVQCSDLLKKWLPQRCATFASKIQGQVDKIKGAGGD heavy: not shown						binding result [10]: binds
VHH:C74-Fc-GpL (Fc fusion, also called VHH-Fc-GpL variant of C74; not shown: The Fc domain, the C-terminal GpL reporter and the linkers or tags of the VHH-Fc-GpL construct; No entry gives the joined chain or says which Fc variant was used) VHH: DVQLVESGGGLVQSGGSLRLSCAASGFPFSSSDMTWVRQTSGSVFEWVSDINPDGQNTRYADSVKGRFIISRDNAKSTLYLQMDSLKTDDTAVYYCAADPGSSGGSLSYWGKGTLVTVSS	no binding	0.08 µg/mL	0.06 µg/mL			binding result [9]: no binding
3×VHH:C74-Fc-GpL (Fc fusion, also called 3×VHH-Fc-GpL variant of C74; hexavalent format for C74; not shown: the listing has no entry for the 3xVHH-Fc-GpL format) VHH: DVQLVESGGGLVQSGGSLRLSCAASGFPFSSSDMTWVRQTSGSVFEWVSDINPDGQNTRYADSVKGRFIISRDNAKSTLYLQMDSLKTDDTAVYYCAADPGSSGGSLSYWGKGTLVTVSS				0.035 µg/mL	0.001 µg/mL	
VHH:C238-Fc-GpL (Fc fusion, also called VHH-Fc-GpL format protein of C238; not shown: the listing has no entry for the VHH-Fc-GpL format) VHH: QVQLVESGGGSVQPGGSLTLSCVDSGSAYLSYCMAWFRQAPGKEREGVAAIYYGGDSYYADSVKGRFTISQDHAKNTMYLQMNSLKPEDTAVYYCAADVGFICGYDSDNDPPNDWGQGTQVTVSS		0.67 µg/mL	0.17 µg/mL			Kd [4]: 0.2 µg/mL; Kd [5]: 1.05 µg/mL
3xVHH:C238-Fc-GpL (Fc fusion, not shown: a dimerising Fc or GST; small tags and cut ends, also called hexavalent 3×VHH-Fc-GpL construct of C238) VHH: QVQLVESGGGSVQPGGSLTLSCVDSGSAYLSYCMAWFRQAPGKEREGVAAIYYGGDSYYADSVKGRFTISQDHAKNTMYLQMNSLKPEDTAVYYCAADVGFICGYDSDNDPPNDWGQGTQVTVSS				0.008 µg/mL	0.006 µg/mL	Kd [8]: 0.1 µg/mL
VHH:C178-Fc-GpL (Fc fusion, also called VHH-Fc-GpL format protein of C178; not shown: The Fc domain, the C-terminal GpL reporter and the linkers or tags of the VHH-Fc-GpL construct; No entry gives the joined chain or says which Fc variant was used) VHH: DVQLVESGGGLVHPGGSLRLSCAASGFTFSADDATWARQPPGKGLEWISTLYFDTEEKTYADSVKGRFIISRDIAKNTVYLQMNNLKPEDTGMYVCTATWAGGSLLRPASFGVWGQGTQVTVSS	no binding	0.9 µg/mL	0.06 µg/mL			binding result [9]: no binding
